Measurements taken from the DeepSol protein solubility set.

Test: soluble on expression in E. coli; label from the status in PepcDB or PDB records

Row | Sequence | soluble on expression in E. coli
1 | MGSDKIHHHHHHMTFNVPDVKPLINDEFAGEAPKRALSYIANKRSAGMPVAGTYCGYAPMEVIRAVGAVPAVLCAFANKTIPAAEAVLPANLCPLIKSSYGFILTDTCPFFALSDAVVAETTCDGKKKMFELIFSHRPMFVMDLPQLPDEVEARANWATMISKLKGFLENTFGTFGTSEGIEAEIQATNIKNRLMRRVFGYAEKKPPLLSWSELYELCFLAQVATTEDLLPVFKEVFERLEEREAKGIYYGAPSSPRVLVTGCPVGGDSTKVFRIIEEAGGVVVAMDSCSGMKPFIADIEEKTGNPIDSVARHYLEIPCSCMTPNTRRLTELDKALAAFQPDAVVEVVLHACHSYNIEAIKIMNYLKEKHNLPYLKIVTDYSEGDVEQIRTRVEALLESI | not soluble
2 | MGSDKIHHHHHHMTGKTVDLKLPAKLDGLFKPCRYKVMYGGRGGGKSHGAASALLALGAQRPLRILCAREIQKSMRDSVHRLLKDKVAQLGLGHFYEITDFEIRGANGTLFVFSGLQSHTVDSIKSFEGIDIVWVEEGHGVSKKSWDVLTPTIRKEGSEIWITLNPDMETDETYRRFIAMPSEDTWLCEINWRDNPWFPEALNRERLKAQRSMNKEDYGNIWEGRPRMVSEGAVYRHEIQDAFHSGRVTLVPYDSSLPVHTVWDLGWNDAMTIGLVQRDLTSVRIIGYIEDTHRTLDWYVAELEKLPYRWGTDFLPHDGRTRNFQTGKSTMEILTGLGRKSVFVQNATGIEEGIRAARMLFPKVYFDKDKTARLLECLKRYGRQIHAKTGVAMGPLHDEYSHGADMFRYLAQAVDLMDTGSNTGYTETPVSDWRLY | not soluble
3 | MGSDKIHHHHHHMTGLSQSQASPMQIQPGNAAFNPWTDAALDTIRDVNQALTLYAEMRVVPAHHDAFLAAIDTVSAKLRVLPGFLSLALKQMSGDSTMVKNYPETYKGVLATAYLDGVAAGTQPYFYNLFVRFADGRAARAAGFEALFETHIHPLLHAMAPRGGDGPELLAYRAVLQSVVAGDRHAIYRGAEEIRSFLRRPVELPERETVTVENHVMVPEDKHAAWEPQVAILLQVAQDTFEPQDEPSGVGLPGARDNRYYRKALSTEILRNAHADGGLRAYIMHGVWESVWDHENSHLDPRFLAAAGPVGAAAVVGPVEPFYLTRRLVVAD | not soluble
4 | MGSDKIHHHHHHMTIFERSKKGRKAFRLPESDIPEYSLPDRFLRRTPPELPEVSEPDLVRHYTNLARKNYSVDLGIYPLGSCTMKYNPKLNEKAANLEGFREIHPYQPVETVQGSLRLMYELKKMLCEITGMDDMTLQPAAGAHGELTGMLIVREYFKNRGDTGRKKVLVPDSAHGTNPASASMVGFEVVEIKSKNGMVDVEDLKKLLDEEVAAVMLTNPNTLGLFEKDILKIAEMTHECGALLYYDGANLNAIMGKVRPGDMGFDIVHLNLHKTFSTPHGMGGPGSGPVGVKKHLVDFLPFPQVKKNGELYELFVPEKTIGRVRSFFGNFPVLVKAYTYILTMGRDGLERVSEMAVLNANYLKKKIEKFLEIPYNGFCMHEFVASAEKVFRETGVRTLDIAKRILDFGVHPPTVYFPLIVPEALMIEPTETENKETLDKYAEILERVVKEAYENPDALKNAPHNTPVRRVNEVLASKKPVFRWRG | not soluble
5 | MGSDKIHHHHHHMTILDHKIDFAVILSVTKANPNGDPLNGNRPRQNYDGHGEISDVAIKRKIRNRLLDMEEPIFVQSDDRKADSFKSLRDRADSNPELAKMLKAKNASVDEFAKIACQEWMDVRSFGQVFAFKGSNLSVGVRGPVSIHTATSIDPIDIVSTQITKSVNSVTGDKRSSDTMGMKHRVDFGVYVFKGSINTQLAEKTGFTNEDAEKIKRALITLFENDSSSARPDGSMEVHKVYWWEHSSKLGQYSSAKVHRSLKIESKTDTPKSFDDYAVELYELDGLGVEVIDGQ | not soluble
6 | MGSDKIHHHHHHMTISEARLSPQVNLLPIKRHSNEEVEETAAILKKRTIDNEKCKDSDPGFGSLQRRLLQQLYGTLPTDEKIIFTYLQDCQQEIDRIIKQSIIQKESHSVILVGPRQSYKTYLLDYELSLLQQSYKEQFITIRLNGFIHSEQTAINGIATQLEQQLQKIHGSEEKIDDTSLETISSGSLTEVFEKILLLLDSTTKTRNEDSGEVDRESITKITVVFIFDEIDTFAGPVRQTLLYNLFDMVEHSRVPVCIFGCTTKLNILEYLEKRVKSRFSQRVIYMPQIQNLDDMVDAVRNLLTVRSEISPWVSQWNETLEKELSDPRSNLNRHIRMNFETFRSLPTLKNSIIPLVATSKNFGSLCTAIKSCSFLDIYNKNQLSNNLTGRLQSLSDLELAILISAARVALRAKDGSFNFNLAYAEYEKMIKAINSRIPTVAPTTNVGTGQSTFSIDNTIKLWLKKDVKNVWENLVQLDFFTEKSAVGLRDNATAAFYASNYQFQGTMIPFDLRSYQMQIILQELRRIIPKSNMYYSWTQL | not soluble
7 | MGSDKIHHHHHHMTISQQAVLAATAITKTFGAHVALHTIDIAFRPGEVHALLGENGAGKSTLIKILTGAYTPDAGTVLVDGAPMSFSTPQQAQAAGIGTVYQEVNLLTNMTVADNLFIGRQPRRFGLVDHRTMEREARRILSGYGLDIDVRAELATFSVAVQQIIAIARAVELSGKVLILDEPTASLDRSEVLKLFEIVRGLKARGLAIVFITHFLDQVFELCDHATVLRNGKLVGSQPIDTLNRTTLVRMMLGKDLSLHHDAVAGIEAEVGESLMQFTGYGLDGKVQPFTLTIHKGEVIGVAGLLGSGRTEMARLMFGIDSADKGELTLNGASFKIRSPRQAIDLGFGFCPEDRKADGIFGDLSVRENIIIAMQAKLGWLRTLSYDEQMEIAGQFIEALDIRTASAELPIKLLSGGNQQKAILARWLATDPRFLILDEPTRGIDVGAHAEIVRMISRLREDGLALIVISSELDEVVSYSSRIVVMRDRAMVAELHGADIAPDVIVQTIAAQSNTPAQSEGAFS | not soluble
8 | MGSDKIHHHHHHMTKHLYIDEYGSFVGKTSERLTVSQGGELKAEIPLSRLKSVNILKGGISLSSDIIEACSLRGIKIFFLDFRNVAHTAITSTANHAVANVRKAQFLTIESNHGREIARTLIVGKLKNQRATLQYFYKYLKNTDKQSKKLESAIEKIKETIESLKNIELSNNKHWSQIIMGKEGGMAAIYFDAIGAELLEECDFTTRIGRGAEDIMNSALNYGYAILTSFVWQSIINAGLEAYAGVLHTNRPGKPSLVLDVMEEYRAWVVDRNIIKLRSSLAGKKELDAELKKKIITEINATMNKKHLYNGKNLSLQGVMQRQVYRLVGAFMQQNRYKSYIFKW | not soluble
9 | MGSDKIHHHHHHMTKLHYIRNKDCNMKEGLKLNKGKLIAQGKTSEVFEYGQDKILKLFRKDLPEKNIENEYEVSFNLSKKMKLVPKVYDLVEVDDRKGIIYEKVNGTTMMEVISSKPWKVKKEAQRLAELHEAIQKPVDFELPDYKTTLKENISKTELLEEDIKKRLYDYIDELKDDDLLCHGDFHPDNVLITEEGEVIIDWMTASKGSRIADIARTSVMLKFGASPVKRSAEKKIIKFVRNRFYSGYIKHYMKITGINKEQIEEWELPIAAARLNEWLPKSEKVDLLKFIDMKMK | not soluble
10 | MGSDKIHHHHHHMTKREGGIKMAEKRRKRVVILGAAGRDFHNFNVFFRNNPEYEVVAFTATQIPDIEGRIYPPELAGELYPNGIPILPEDDLEKIIKEKDVDIVVFAYSDVSHEHVMHLASRAHSAGADFWLLGPKSTMIESKKPVVAVTAVRTGCGKSQTSRKVAQLLQEMGYKVAVIRHPMPYGDLRKQIVQRFASFEDLDRYECTIEEREEYEPYIERGMVVYAGVDYEKILREAEKEADIILWDGGNNDFPFYKPDLWIVVTDPHRPGHELTHHPGETNFRSADVIIINKIDTAYPENVQKIRENIEKVNPNAIVIEAASPIFVDKPELIKGKRVLVIEDGPTLTHGGMSYGAGYIAAKKFGAKEIVDPRPYAVGSIIETYKKYPHLSNILPAMGYGKKQIKELEETINRADADVVIMGTPVDLRRFMNLNKPAVRVKYELEEIGQPKLKDILEEWVKKCEKLKK | not soluble
11 | MGSDKIHHHHHHMTKVKLNFNKPSNVFNRNIFEILTNYDNFTEVHYGGGSSGKSHGVIQKVVLKALQDWKYPRRILWLRKVQSTIKDSLFEDVKDCLINFGIWDMCLWNKTDNKVELPNGAVFLFKGLDNPEKIKSIKGISDIVMEEASEFTLNDYTQLTLRLRERKHVNKQIFLMFNPVSKLNWVYKYFFEHGEPMENVMIRQSSYRDNKFLDEMTRQNLELLANRNPAYYKIYALGEFATLDKMVFPKYEKRLINKDELRHLPSYFGLDFGYVNDPSAFIHSKIDVKKKKLYIIEEYVKQGMLNDEIANVIKQLGYAKEEITADSAEQKSIAELRNLGLKRILPTKKGKGSVVQGLQFLMQFEIIVDERCFKTIEEFDNYTWQKDKDTGEYTNEPVDTYNHCIDSLRYSVERFYRPVRKRTNVSSKVDTIKSLGL | not soluble
12 | MGSDKIHHHHHHMTLDAVLTQIDTDLDAAMARLMALLRVPSISTDPAFDADVARAAQILCDDLTGLGFDASVRETTGHPMVVAHGDDTGPHVLFYGHYDVQPVDPLDLWDRDPFDPIIEEQNGKKVIRARGASDDKGQLMTFIEACRAWKAVTGKLPAKVTIFLEGEEESGSPSLVPFMEAHKDELTAEVALICDTGLFAEGVPAIVTQLRGMLQEEITVTGPRIDLHSGMFGGIAMNPIRVLSGVLAGLHDANGSVTVPGFYEGVPDISDDLRASWDALGFVPEAFLGPVGLSHPAGEAGRSGLEMIWSRPTAEVNGVWGGYTGAGFKTVLPSQAHAKISFRLVAGQDPDRLHENFVDWVTAQMPPDCTVSITQIAGSRASQMDTSHPIFETTRQALSDEWPNEAAYIGCGGSIPVAGHFKTILGMDSVLAGFGKDDDAIHSPNEKYDVESFHRGIRSWARVLGGLSEV | not soluble
13 | MGSDKIHHHHHHMTLELIPVGISACLLGNPVRFDGGHKRLTFAVEELAPYFRFESVCPEMAIGLPVPRPALRLVREGESHVTMRASNGSSLDVTQQITVFSADKVSQLQHLCGYIVCAKSPSCGMERVKVYDEAQKNARKSGVGLFTQELMRQMPWLPVEEDGRLHDSGLRENFIERVYALHELNQLWKNGLSRGALIAFHSRYKLLLLAHSQPEYRELGPFVAGIDKWESLEEYVVEYRTRLMKLLSTPATRRNHTNVLMHVQGYFRRQLSSQQRQELAQLIDRYRQGLQPLLAPITLLKHYMAEYPDAYLAQQRYFEPYPEALRLRYGH | not soluble
14 | MGSDKIHHHHHHMTLKSRIGILAGKTAHFFLSKIGRGSTLPGKIALKCDKDILDTLAKDYDIVVVTGTNGKTLTTALTVGILKEAYGQVLTNPSGANMITGITSTFLTAKKSRNGKKIAVLEIDEASLPKITDYLKPSLFVFTNIFRDQMDRYGEIYTTYQMILDGAAKAPKATILANGDSPLFNAKTVVNPVRYYGFDTKKEAAHLAHYNTEGIVCPKCEYILQYKLNTYANLGDYICPNCGFHRPHLDYSLTQLTKISNTQAEFIIDGQDYKINVGGLYNIYNALAAVAVAEFLGVTPEQIKAGFDKSRAVFGRQETFKIGDKSCTLVLIKNPVGASQALEMIKLAPYPFTLSVLLNANYADGIDTSWIWDANFESILDMNIPQIFTGGVRHSEIARRLRVTGYNETKIEQAEKLEDILSMIEKQEADHAYILATYTAMLEFRELLASRHAVRKEMH | not soluble
15 | MGSDKIHHHHHHMTLPATITHQEKLLTVDTTAHPFLKALGGHEGTDIFPLFMDPYNGLMVMRASFAPGLTLPLHFHTGTVHMYTISGCWYYTEYPGQKQTAGCYLYEPGGSIHQFNTPRDNEGQTEVIFMLSGCNVNFTQDGTYLGLSDAGVIKNWVDRAIREQDNGLRYIAAAVPTYAA | not soluble
